Publication PMC8096265, “A functional LSD1 coregulator screen reveals a novel transcriptional regulatory cascade connecting R-loop homeostasis with epigenetic regulation” (Nucleic Acids Research, 2021)

Assays:
[1] = system: R-loops from NIH/3T3 cell lysate; test: S9.6 antibody IP, co-precipitation of LSD1 and DDX19A; format: cell-based, murine; settings: NIH/3T3 whole cell lysate, Western blot
Procedure: 100 μl Dynabeads® Protein G were pre-blocked with 0.5% BSA/PBS for 2 h at 4°C. 10 × 10^6 non-crosslinked NIH/3T3 cells were harvested, washed once in 1× PBS and lysed in 1 ml Cell Lysis Buffer (85 mM KCl, 5 mM HEPES pH 8, 0.5% NP-40, cOmplete™ EDTA-free PIC) for 15 min on ice. Nuclei were collected by spinning 1 min at 15 000 × g, 4°C. The pellet was resuspended in 750 μl RSB buffer (10 mM Tris–HCl pH 7.5, 200 mM NaCl, 2.5 mM MgCl2, cOmplete™ EDTA-free PIC) supplemented with 0.2% sodium-deoxycholate, 0.1% SDS, 0.05% sodium-lauroyl-sarcosinate and 0.5% Triton X-100. Cells were sonicated for 4 min in an EpiShear Probe Sonicator (20 s pulse, 30 s pause, 40%). After taking 5% as input, samples were transferred to a 15 ml falcon tube and diluted 1:4 by addition of 2.3 ml RSB with 0.5% Triton X-100 (RSB+T). The samples were subjected to pre-clearing with 5 μg mouse IgG and 35 μl Dynabeads® Protein G for 1 h at 4°C. Magnetic beads were locked and the supernatant was split into three Eppendorf tubes. For the S9.6 antibody-specificity control, 40 U of RNAse H (NEB) were added to one of the tubes and all samples were incubated for 10 min at 37°C before adding the IP antibodies. The samples were subjected to IP with 4 μg of either the S9.6 antibody or mouse IgG and 32 μl pre-blocked beads per sample. 10 ng RNase A was added to each tube before rotating at 4°C for 2.5 h. […]

RNA:DNA hybrid = test: RNA:DNA unwinding assay; format: biochemical; settings: 4.79 μM recombinant DDX19A, 1 nM Cy-5-labeled RNA:DNA hybrid, 4 mM ATP, 30°C, 60 min, pH 7.5
Procedure: RNA:DNA unwinding assay was performed as described ([54]). In brief: RNA:DNA hybrids were annealed in vitro in 5 mM Tris/HCl pH 8.5. The sequence of the top RNA strand was: 5′‐[…]‐3′, and the sequence of the bottom DNA strand was 5′-[…]‐3′. The annealed RNA:DNA hybrid has a 5′ ssDNA overhang and is labeled with Cy-5. Unwinding experiments were carried out at 30°C for 60 min in 30 mM Tris–HCl (pH 7.5), 50 mM NaCl, 5 mM MgCl2, 2 mM DTT, 0.01% NP‐40, 0.1 mg/ml BSA, 4 mM ATP, 1 nM Cy-5‐labeled RNA:DNA hybrid substrate, in the presence of 4.79 μM recombinant DDX19A. The reaction was stopped by the addition of SDS to a final concentration of 0.5% and 20 ng proteinase K (20 mg/ml). The reaction was afterward loaded onto a 10% non-denaturing polyacrylamide gel and analysed using a FusionFX detection system (VILBER).

B1: DDX19A: DEAD-box helicase 19A; recombinant GST-tagged for in vitro tests, endogenous in S9.6 IP (protein, UniProt Q9NUU7 2-478, looked up)
ATP-dependent RNA helicase …: ATDSWALAVDEQEAAVKSMTNLQIKEEKVKADTNGIIKTSTTAEKTDEEEKEDRAAQSLLNKLIRSNLVDNTNQVEVLQRDPNSPLYSVKSFEELRLKPQLLQGVYAMGFNRPSKIQENALPMMLAEPPQNLIAQSQSGTGKTAAFVLAMLSRVEPSDRYPQCLCLSPTYELALQTGKVIEQMGKFYPELKLAYAVRGNKLERGQKISEQIVIGTPGTVLDWCSKLKFIDPKKIKVFVLDEADVMIATQGHQDQSIRIQRMLPRNCQMLLFSATFEDSVWKFAQKVVPDPNVIKLKREEETLDTIKQYYVLCSSRDEKFQALCNLYGAITIAQAMIFCHTRKTASWLAAELSKEGHQVALLSGEMMVEQRAAVIERFREGKEKVLVTTNVCARGIDVEQVSVVINFDLPVDKDGNPDNETYLHRIGRTGRFGKRGLAVNMVDSKHSMNILNRIQEHFNKKIERLDTDDLDEIEKIAN
modifications: GST tag
notes: DEAD-box helicase 19A; recombinant GST-tagged for in vitro tests, endogenous in S9.6 IP
With B1 the “association with R-loops (co-precipitation with S9.6)” value [1] was “strong physical association” and the “ability to resolve RNA:DNA hybrids in vitro” value (RNA:DNA hybrid) was “confirmed its ability to resolve RNA:DNA hybrids in vitro”.
